Data set [1] has as its target PKC1 tagged at its COOH-terminus with the HA epitope (PKC1^HA) (UniProt P24583).
In data set [2] the target is 1,3-β-glucan synthase (GS) complex (UniProt P38631).
1,3-β-glucan synthase (GS) complex, sequence (P38631 whole entry, looked up, one chain of several): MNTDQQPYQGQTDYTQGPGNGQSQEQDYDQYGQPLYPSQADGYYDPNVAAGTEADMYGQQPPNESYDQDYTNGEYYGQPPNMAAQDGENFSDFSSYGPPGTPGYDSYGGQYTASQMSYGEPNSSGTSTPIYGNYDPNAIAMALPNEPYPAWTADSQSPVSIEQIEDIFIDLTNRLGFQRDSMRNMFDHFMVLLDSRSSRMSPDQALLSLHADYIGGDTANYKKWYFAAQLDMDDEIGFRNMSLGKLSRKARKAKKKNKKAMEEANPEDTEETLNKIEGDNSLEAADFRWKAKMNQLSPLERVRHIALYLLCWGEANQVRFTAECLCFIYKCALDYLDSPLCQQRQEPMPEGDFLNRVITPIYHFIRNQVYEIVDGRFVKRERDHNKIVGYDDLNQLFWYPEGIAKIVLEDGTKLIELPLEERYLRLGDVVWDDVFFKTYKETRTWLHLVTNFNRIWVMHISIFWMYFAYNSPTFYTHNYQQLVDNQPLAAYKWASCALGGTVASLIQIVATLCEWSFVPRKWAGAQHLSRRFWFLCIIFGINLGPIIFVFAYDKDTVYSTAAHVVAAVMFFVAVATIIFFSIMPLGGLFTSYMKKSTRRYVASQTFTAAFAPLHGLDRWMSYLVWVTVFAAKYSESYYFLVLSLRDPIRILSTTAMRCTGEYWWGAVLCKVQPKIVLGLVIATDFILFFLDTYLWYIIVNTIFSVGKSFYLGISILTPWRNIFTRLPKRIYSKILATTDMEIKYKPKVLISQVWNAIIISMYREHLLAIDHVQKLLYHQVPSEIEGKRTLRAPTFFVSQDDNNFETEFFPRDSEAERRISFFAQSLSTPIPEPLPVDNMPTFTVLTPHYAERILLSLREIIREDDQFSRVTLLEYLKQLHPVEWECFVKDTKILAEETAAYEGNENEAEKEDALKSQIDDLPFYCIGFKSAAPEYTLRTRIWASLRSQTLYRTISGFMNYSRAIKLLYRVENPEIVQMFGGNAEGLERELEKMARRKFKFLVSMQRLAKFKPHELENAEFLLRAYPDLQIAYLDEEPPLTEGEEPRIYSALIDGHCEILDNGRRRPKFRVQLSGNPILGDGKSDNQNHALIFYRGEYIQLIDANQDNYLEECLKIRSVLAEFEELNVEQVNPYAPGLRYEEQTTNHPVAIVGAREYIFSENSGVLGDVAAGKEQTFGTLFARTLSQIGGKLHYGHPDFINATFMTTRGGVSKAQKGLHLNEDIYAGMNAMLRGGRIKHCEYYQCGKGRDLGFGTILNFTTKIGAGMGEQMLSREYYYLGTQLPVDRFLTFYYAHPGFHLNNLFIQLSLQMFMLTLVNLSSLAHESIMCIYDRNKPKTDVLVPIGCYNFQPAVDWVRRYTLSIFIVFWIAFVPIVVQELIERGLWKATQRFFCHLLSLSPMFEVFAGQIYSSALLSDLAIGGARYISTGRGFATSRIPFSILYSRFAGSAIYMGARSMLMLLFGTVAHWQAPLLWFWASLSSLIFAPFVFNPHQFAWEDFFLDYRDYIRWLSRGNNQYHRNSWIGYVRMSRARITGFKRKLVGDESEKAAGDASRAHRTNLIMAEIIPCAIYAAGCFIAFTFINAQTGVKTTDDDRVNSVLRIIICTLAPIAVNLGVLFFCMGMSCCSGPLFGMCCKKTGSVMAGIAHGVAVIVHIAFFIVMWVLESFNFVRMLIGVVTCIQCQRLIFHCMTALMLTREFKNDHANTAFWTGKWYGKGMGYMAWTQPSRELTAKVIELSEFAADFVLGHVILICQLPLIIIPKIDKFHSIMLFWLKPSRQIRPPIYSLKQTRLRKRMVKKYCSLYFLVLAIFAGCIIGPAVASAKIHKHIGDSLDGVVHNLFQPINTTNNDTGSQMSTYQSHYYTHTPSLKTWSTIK

PKC1 tagged at its COOH-terminus with the HA epitope (PKC1^HA), sequence (P24583 whole entry): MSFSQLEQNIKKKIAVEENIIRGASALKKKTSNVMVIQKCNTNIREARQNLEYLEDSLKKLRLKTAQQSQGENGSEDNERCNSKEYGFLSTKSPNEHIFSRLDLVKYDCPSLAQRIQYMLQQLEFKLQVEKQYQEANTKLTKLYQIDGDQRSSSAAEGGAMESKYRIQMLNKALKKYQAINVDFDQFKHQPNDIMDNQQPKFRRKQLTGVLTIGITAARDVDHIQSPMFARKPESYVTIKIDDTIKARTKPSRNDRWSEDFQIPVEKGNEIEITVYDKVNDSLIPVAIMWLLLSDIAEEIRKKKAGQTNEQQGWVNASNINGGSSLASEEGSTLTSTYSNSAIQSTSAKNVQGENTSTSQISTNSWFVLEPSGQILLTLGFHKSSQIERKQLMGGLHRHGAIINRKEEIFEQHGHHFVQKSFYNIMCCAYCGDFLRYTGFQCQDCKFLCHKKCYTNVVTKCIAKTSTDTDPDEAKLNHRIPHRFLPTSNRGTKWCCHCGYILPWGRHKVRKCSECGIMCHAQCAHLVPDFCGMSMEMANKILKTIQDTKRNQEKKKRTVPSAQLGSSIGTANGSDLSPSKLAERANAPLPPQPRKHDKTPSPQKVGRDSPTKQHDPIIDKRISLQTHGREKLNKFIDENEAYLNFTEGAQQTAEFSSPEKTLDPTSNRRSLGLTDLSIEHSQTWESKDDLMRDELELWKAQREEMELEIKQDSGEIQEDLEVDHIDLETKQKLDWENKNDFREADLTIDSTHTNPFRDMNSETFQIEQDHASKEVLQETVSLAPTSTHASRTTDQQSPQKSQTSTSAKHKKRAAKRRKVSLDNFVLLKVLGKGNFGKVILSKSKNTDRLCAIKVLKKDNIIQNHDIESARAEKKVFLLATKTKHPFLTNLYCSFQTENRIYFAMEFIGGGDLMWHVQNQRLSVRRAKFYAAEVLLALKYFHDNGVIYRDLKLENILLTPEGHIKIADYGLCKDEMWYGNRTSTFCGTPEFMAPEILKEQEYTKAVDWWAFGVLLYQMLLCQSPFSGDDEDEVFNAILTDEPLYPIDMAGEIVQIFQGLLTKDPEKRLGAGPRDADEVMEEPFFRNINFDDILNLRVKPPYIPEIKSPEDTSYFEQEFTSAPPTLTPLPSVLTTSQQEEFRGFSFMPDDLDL

With Recombinant GST-Cdc42, the “Phosphorylation of synthetic Bck1 peptide by PKC1^HA” value in data set [1] is listed as “GST-Cdc42 did not confer cofactor-dependent stimulation on PKC1”.
Take “Recombinant mutant Rho1 (G19V), constitutively active GST-Rho1”: the “GS activity in the membrane fraction of the cal1-1 mutant” value in data set [2] was “GS activity was restored by the addition of constitutively activated Rho1”.

The values above are taken from US20020168748.
